According to US12514920B1, “Respiratory syncytial virus mRNA vaccine, and preparation method therefor and use thereof” (Hangzhou Tianlong Pharmaceutical Co., Ltd., priority 2024, dated 2026):
Residue numbers refer to the chain shown, from its start.

B1: YK-RSV-019 (protein)
chain: QNITEEFYQSTCSAVSKGYLGALRTGWYTCVITIELSNIKENKCNGTDAKVKLIKQELDKYKNAVTDLQLLMQSTPATGSGSAICSGVAVSKVLHLEGEVNKIKSALLSTNKAVVSLSNGVSVCTFKVLDLKNYIDKQLLPIVNKQSCSIPNIEIVIEFQQKNNRLLEITREFSVNAGVTTPVSTYMLTNSELLSLINDMPITNDQKKLMSNNVQIVRQQSYSIMSIIKEEVLAYVVQLPLYGVIDTPCWKLHTSPLCTTNTKEGSNICLTRTDRGWYCDNAGSVSFFPQAETCKVQSNRVFCDTMNSRTLPSEVNLCNVDIFNPKYDCKIMTSKTDVSSSVITSLGAIVSCYGKTKCTASNKNRGIIKTFSNGCDYVSNKGVDTVSVGNTLYCVNKQEGQSLYVKGEPIINFYDPLVFPSSEFDASISQVNEKINQSLAFIRKSDELLHNVNAGKSTTNIMITTIIIVIIVILLSLIAVGLLLY
B2: YK-RSV-034 (protein)
chain: B1 chain with Q1C, C30S, C85A, C124L, V143L, I155T, C394Y, K397C, S422D
B3: YK-RSV-045 (protein)
chain: B1 chain with C30S, T75C, C85A, C124L, V143L, I155T, V236C, C394Y, S422D
B4: YK-RSV-029 (protein)
chain: B1 chain with T4C, C30S, C85A, C124L, V143L, I155T, C394Y, Q401C, S422D
B5: YK-RSV-037 (protein)
chain: B1 chain with Y28C, C30S, C85A, A89C, C124L, V143L, I155T, C394Y, S422D
B6: YK-RSV-032 (protein)
chain: B1 chain with Q9C, C30S, C85A, C124L, V143L, I155T, C394Y, K406C, S422D
B7: YK-RSV-035 (protein)
chain: B1 chain with N2C, C30S, C85A, C124L, V143L, I155T, C394Y, Q398C, S422D
B8: YK-RSV-040 (protein)
chain: B1 chain with T29C, C30S, C85A, A89C, C124L, V143L, I155T, C394Y, S422D
B9: YK-RSV-046 (protein)
chain: QNITEEFYQSTCSAVSKGYLGALRTGWYTSVITIELSNIKENKCNGTDAKVKLIKQELDKYKNAVTDLQLLMQSTPATGSGSFCGFLLGVGSAIASGVAVSKVLHLEGEVNKIKSALLSTNKAVVSLSNGVSVLTFKVLDLKNYIDKQLLPILNKQSCSIPNIETVIEFQQKNNRLLEITREFSVNAGVTTPVSTYMLTNSELLSLINDMPITNDQKKLMSNNVQIVRQQSYSIMSIIKEEVLAYVVQLPLYGVIDTPCWKLHTSPLCTTNTKEGSNICLTRCDRGWYCDNAGSVSFFPQAETCKVQSNRVFCDTMNSRTLPSEVNLCNVDIFNPKYDCKIMTSKTDVSSSVITSLGAIVSCYGKTKCTASNKNRGIIKTFSNGCDYVSNKGVDTVSVGNTLYYVNKQEGQSLYVKGEPIINFYDPLVFPSDEFDASISQVNEKINQSLAFIRKSDELLHNVNAGKSTTNIMITTIIIVIIVILLSLIAVGLLLY
B10: YK-RSV-051 (protein)
chain: B9 chain with C84L, F86C, C283T, T315C

Each molecule was assayed on RSV F antibody (11A9) (assay: Binding of epitope II of RSV F antigen mutants by flow cytometry). Conditions: epitope II, antibody 11A9.
Method in brief: (§1)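 293T cells were transfected with mRNA-LNP (300 ng mRNA) encoding the RSV F mutants and harvested after 16 h. Cells were stained with fluorescent 3C12 (pre-F-specific epitope Φ) or 11A9 (epitope II, pre-F and post-F) for 2 h at 4 °C in the dark, then washed and read by flow cytometry on 1×10^4 cells per measurement.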

Molecule	RSV F antibody (11A9) Epitope II (%) binding rate
B1	90.4%
B2	91.0%
B3	86.0%
B4	86.7%
B5	86.9%
B6	94.8%
B7	87.1%
B8	92.0%
B9	89.8%
B10	87.1%

Each molecule was assayed on RSV pre-F antibody (3C12) (assay: Binding of epitope Φ of RSV F antigen mutants by flow cytometry). Conditions: flow cytometry; epitope Φ, antibody 3C12.
Method in brief: as §1

Molecule	RSV pre-F antibody (3C12) Epitope Φ (%) binding rate
B1	84.5%
B2	82.5%
B3	78.3%
B4	79.6%
B5	79.0%
B6	86.1%
B7	79.6%
B8	84.3%
B9	84.0%
B10	76.8%

Same assay, conditions: ratio of epitope Φ (3C12) to epitope II (11A9) binding rate

Molecule	Φ/II (%)
B1	93.5%
B2	90.7%
B3	91.0%
B4	91.8%
B5	90.9%
B6	90.8%
B7	91.4%
B8	91.6%
B9	93.5%
B10	88.2%

These molecules were tested on RSV pre-F antibody (3C12) (assay: not given). Conditions: high osmotic pressure 3000 mM, room temperature, 60 min; ELISA binding to 3C12.
Type: physicochemical
Source text: To investigate the stability of the RSV F antigen mutants under different pH, temperature, osmotic pressure and other conditions, the mutants were subjected to stress tests under different treatment conditions in this example.
• 293T cells (purchased from ATCC cell bank); • Primary antibody: RSV pre-F antibody (3C12), epitope Φ (purchased from Suzhou Novoprotein Scientific Co., Ltd. (hereinafter referred to as Novoprotein), Cat. No.: DA101); • Standard: RSV pre-F trimer protein (Novoprotein, Cat. No.: DRA230); • Secondary antibody: peroxidase AffiniPure goat anti-human IgG (H+L) (purchased from Yeasen Biotechnology (Shanghai) Co., Ltd. (hereinafter referred to as Yeasen), Cat. No.: N/A); • Experimental group: mRNA vaccines after screening in Example 4;
Coating: A 96-well microplate was coated with a working solution and incubated at 2 to 8° C. for 16 to 20 h.
Plate washing: Phosphate buffered saline PBST was added to each well, and the plate was washed 5 times using a plate washer and patted dry on absorbent paper.
Blocking: After a blocking solution was added, the […] were placed on a constant temperature microplate shaker and incubated at 400 rpm for 1.5 h at 37° C.
Plate washing: PBST was added to each well, and the plate was washed 5 times using a plate washer and patted dry on absorbent paper.
Primary antibody incubation: A primary antibody dilution was added to each well, and the plate was sealed with a sealing film, and then incubated at 400 rpm for 1.5 h at 37° C.
Secondary antibody incubation: A secondary antibody dilution was added to each well, and the plate was sealed with a sealing film, and then incubated at 400 rpm for 45 min at 37° C.
Color development: A chromogenic solution was added, and the plate was sealed with a sealing film, and then placed on a constant temperature microplate shaker and incubated at 400 rpm for 25 min at 37° C.
Reaction stopping: After the color development was completed, a stop buffer was added at […] to the microplate to stop the reaction.
Plate reading: Absorbance values (OD values) were read within 5 min using a multimode microplate reader, with dual wavelengths of 450 nm and 630 nm set.
In this example, stability screening of the mutants through different treatment conditions was defined as a stress test, including storage at 4° C. for one week; incubation at 50° C. for 60 min; treatment at room temperature under low osmotic pressure and high osmotic pressure conditions for 60 min; treatment at room temperature under acid and base conditions for 60 min. The binding of the mutants to the RSV pre-F antibody (3C12) recognizing the epitope Φ was detected by ELISA.

Molecule	Stress resistance parameter, Osmotic pressure (mM) 3000
B1	0.63 ± 0.04
B2	0.34 ± 0.15
B3	0.46 ± 0.05
B4	0.40 ± 0.01
B5	0.21 ± 0.03
B6	0.37 ± 0.02
B7	0.21 ± 0.06
B8	0.61 ± 0.09
B9	0.41 ± 0.02
B10	0.44 ± 0.00

Same assay, conditions: incubation at 50° C. for 60 min; ELISA binding to 3C12

Molecule	Stress resistance parameter, Temperature (° C.) 50
B1	0.58 ± 0.05
B2	0.68 ± 0.07
B3	0.41 ± 0.03
B4	0.57 ± 0.08
B5	0.50 ± 0.06
B6	0.78 ± 0.02
B7	0.39 ± 0.02
B8	0.91 ± 0.14
B9	0.63 ± 0.03
B10	0.60 ± 0.08

Same assay, conditions: low osmotic pressure 10 mM, room temperature, 60 min; ELISA binding to 3C12

Molecule	Stress resistance parameter, Osmotic pressure (mM) 10
B1	0.81 ± 0.04
B2	0.84 ± 0.14
B3	0.57 ± 0.09
B4	0.61 ± 0.05
B5	0.54 ± 0.11
B6	0.66 ± 0.14
B7	0.39 ± 0.05
B8	0.75 ± 0.13
B9	0.46 ± 0.14
B10	0.51 ± 0.13

Same assay, conditions: pH 3.5, room temperature, 60 min; ELISA binding to 3C12

Molecule	Stress resistance parameter, pH 3.5
B1	0.77 ± 0.05
B2	0.81 ± 0.09
B3	0.47 ± 0.09
B4	0.63 ± 0.03
B5	0.68 ± 0.10
B6	1.01 ± 0.35
B7	0.57 ± 0.03
B8	0.93 ± 0.09
B9	0.83 ± 0.04
B10	0.69 ± 0.14

Same assay, conditions: pH 10, room temperature, 60 min; ELISA binding to 3C12

Molecule	Stress resistance parameter, pH 10
B1	0.88 ± 0.09
B2	0.91 ± 0.04
B3	0.97 ± 0.07
B4	0.82 ± 0.01
B5	1.24 ± 0.11
B6	0.98 ± 0.06
B7	0.82 ± 0.01
B8	1.00 ± 0.23
B9	1.03 ± 0.03
B10	1.00 ± 0.17

Same assay, conditions: storage at 4° C. for one week; ELISA binding to 3C12

Molecule	Stress resistance parameter, Temperature (° C.) 4
B1	0.37 ± 0.08
B2	0.37 ± 0.07
B3	0.29 ± 0.02
B4	0.32 ± 0.06
B5	0.27 ± 0.07
B6	0.34 ± 0.08
B7	0.31 ± 0.07
B8	0.38 ± 0.08
B9	0.24 ± 0.07
B10	0.33 ± 0.05
